Experimental data reported in publication PMC5227068.

Legend:
[1] = biological target: recombinant human CD36 (human) (UniProt P16671); assay: BLI; Octet Qke; hisCD36 immobilised on Ni-NTA biosensors, CIDR domains in solution; kinetics buffer (PBS, 0.02% Tween-20, 100 μg/ml bovine serum albumin, 0.005% sodium azide); association 600 or 900 s, dissociation 300 to 600 s; 1:1 fit
[2] = biological target: recombinant human CD36 (human) (UniProt P16671); assay: BLI; Octet Qke; hisCD36 immobilised on Ni-NTA biosensors, CIDR domain in kinetics buffer (PBS, 0.02% Tween-20, 100 ug/ml BSA, 0.005% sodium azide); association 600 or 900 s, dissociation 300 to 600 s; double-reference subtracted data fitted to a 1:1 binding model
[3] = biological target: human EPCR on CHO745-EPCR cells (human) (UniProt Q9UNN8); assay: flow cytometry on cells; competition: CHO745-EPCR cells coincubated for 30 min with 50 μg/ml (660 nM) or 250 μg/ml (3.3 µM) CIDR domains and 25 μg/ml (446 nM) APC; APC detected by anti-human protein C antibody
[4] = biological target: recombinant human endothelial protein C receptor (human) (UniProt Q9UNN8); assay: BLI; Octet Qke; EPCR on the biosensor, CIDR domain in solution; protocol as reported previously (ref. 40); double-reference subtracted data fitted to a 1:1 binding model
recombinant human endothelial protein C receptor (human), sequence (Q9UNN8 18-238): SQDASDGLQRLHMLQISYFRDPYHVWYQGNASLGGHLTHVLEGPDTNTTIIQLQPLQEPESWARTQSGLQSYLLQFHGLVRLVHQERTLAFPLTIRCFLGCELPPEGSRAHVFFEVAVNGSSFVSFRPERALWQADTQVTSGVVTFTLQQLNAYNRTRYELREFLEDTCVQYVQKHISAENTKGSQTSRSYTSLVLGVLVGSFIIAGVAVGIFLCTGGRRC

recombinant human CD36 (human), sequence (P16671 whole entry, the tested form may be a part): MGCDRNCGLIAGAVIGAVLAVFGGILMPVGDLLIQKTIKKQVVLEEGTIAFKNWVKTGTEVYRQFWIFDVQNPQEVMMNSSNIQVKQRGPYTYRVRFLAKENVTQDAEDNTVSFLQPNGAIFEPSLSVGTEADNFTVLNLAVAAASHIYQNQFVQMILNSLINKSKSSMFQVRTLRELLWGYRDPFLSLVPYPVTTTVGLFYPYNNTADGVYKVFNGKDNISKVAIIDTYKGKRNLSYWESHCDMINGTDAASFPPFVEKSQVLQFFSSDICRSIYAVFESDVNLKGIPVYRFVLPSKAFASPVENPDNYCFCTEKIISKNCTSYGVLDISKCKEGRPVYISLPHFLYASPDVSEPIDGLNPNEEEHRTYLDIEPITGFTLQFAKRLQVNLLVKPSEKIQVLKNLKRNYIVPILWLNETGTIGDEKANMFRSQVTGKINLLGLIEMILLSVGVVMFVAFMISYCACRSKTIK
human EPCR on CHO745-EPCR cells (human), sequence (Q9UNN8 18-238): as the sequence (Q9UNN8 18-238) above

P. falciparum var14 CIDRα5 (domain or fragment)
Kd [1]: 3.2 nM | koff [2]: 2.99e-05 s⁻¹ | kon [2]: 9280 M⁻¹ s⁻¹

P. falciparum var07 CIDRα1.4 (domain or fragment)
percent reduction of APC binding at 50 μg/ml CIDR [3]: 85% | percent reduction of APC binding at 250 μg/ml CIDR [3]: 98%

P. reichenowi var71 CIDRα1.4 (domain or fragment)
koff [4]: 0.000268 s⁻¹ | kon [4]: 11800 M⁻¹ s⁻¹
